Measured values: patent US20250163145A1 (SHIONOGI, published 2025)
Changes are numbered by the printed parent chain. Where no end group is shown, it is not given here.

T1: Cys-hCE3C peptide (CQPKYEYSL), hCE3C peptide of human Nav1.7 with an added N-terminal Cys (human, also: biotin-labeled, site not given here)
T1 construct: Residues 1424-1431 of human Nav1.7 (UniProtKB Q15858) plus an N-terminal Cys; also called immunogenic peptide; immunogen peptide
T1 peptide: CQPKYEYSL

T2: epitope peptide Cys-CE3C long (also: biotin label, site not given here)
T2 peptide: CSVNVDKQPKYEYSL

B1: mouse monoclonal antibody 15H11 (antibody, V domains shown)
VH: EVQLQQSGPELLKPGASVKISCKASGYTFTDYNMHWVKQSHGRSLEWIGRINPKNGVINSNEKFKDKATLTVDKSLSTAYMDLRSLTSEDSAVYFCAPSYYGGNTDAYWGHGTLVTVSA
VL: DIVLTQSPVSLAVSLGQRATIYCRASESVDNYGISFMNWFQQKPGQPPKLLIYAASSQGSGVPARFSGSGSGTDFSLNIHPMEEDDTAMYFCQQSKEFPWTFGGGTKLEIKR
notes: Mouse hybridoma antibody; also called mouse 15H11
B2: h15H11 heavy chain CDR mutant A101V (antibody, human IgG4 S228P, kappa, name in Kabat numbering, V domains shown)
VH: QVQLVQSGSELKKPGASVKVSCKASGYTFTDYNMHWVRQAPGRSLEWMGRINPKNGVINSNEKFKDRFVFSLDTSVSTAYLQISSLKAEDTAVYYCAPSYYGGNTDVYWGQGTLVTVSS
VL: DIVLTQSPASLAVSPGQRATITCRASESVDNYGISFMNWFQQKPGQPPKLLIYAASSQGSGVPARFSGSGSGTDFTLTINPMEANDTANYYCQQSKEFPWTFGGGTKVEIKR
notes: hIgG4Pro/hIgK
B3: h15H11 light chain CDR mutant W96Y (antibody, human IgG4 S228P, kappa, name in Kabat numbering, V domains shown)
VH: B2 VH with V107A
VL: B2 VL with W100Y
notes: hIgG4Pro/hIgK
B4: h15H11 light chain CDR mutant Q90N (antibody, human IgG4 S228P, kappa, name in Kabat numbering, V domains shown)
VH: B2 VH with V107A
VL: B2 VL with Q94N
notes: hIgG4Pro/hIgK
B5: h15H11 heavy chain CDR mutant M34L (antibody, human IgG4 S228P, kappa, name in Kabat numbering, V domains shown)
VH: B2 VH with M34L, V107A
VL: B2 VL
notes: hIgG4Pro/hIgK
B6: h15H11 light chain CDR mutant P95G (antibody, human IgG4 S228P, kappa, name in Kabat numbering, V domains shown)
VH: B2 VH with V107A
VL: B2 VL with P99G
notes: hIgG4Pro/hIgK
B7: h15H11-64 (antibody, human IgG4 S228P, kappa)
heavy: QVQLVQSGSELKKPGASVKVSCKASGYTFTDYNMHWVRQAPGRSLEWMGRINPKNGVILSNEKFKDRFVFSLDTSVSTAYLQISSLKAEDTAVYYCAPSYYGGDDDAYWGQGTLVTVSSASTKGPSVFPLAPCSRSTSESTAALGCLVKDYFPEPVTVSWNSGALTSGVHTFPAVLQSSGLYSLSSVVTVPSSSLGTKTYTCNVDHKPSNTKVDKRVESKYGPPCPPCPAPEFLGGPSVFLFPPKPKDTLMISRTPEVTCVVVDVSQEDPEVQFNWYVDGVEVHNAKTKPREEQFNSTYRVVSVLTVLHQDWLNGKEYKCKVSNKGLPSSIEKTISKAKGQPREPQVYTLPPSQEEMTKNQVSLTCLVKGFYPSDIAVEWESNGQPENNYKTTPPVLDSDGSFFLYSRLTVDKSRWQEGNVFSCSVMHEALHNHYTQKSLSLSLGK
light: DIVMTQSPDSLAVSLGERATINCRASDSVDNYGISFLNWFQQKPGQPPKLLIYAASSQGSGVPARFSGSGSGTDFTLTISSMQAEDVAVYYCQQSKEFPWTFGGGTKVEIKRTVAAPSVFIFPPSDEQLKSGTASVVCLLNNFYPREAKVQWKVDNALQSGNSQESVTEQDSKDSTYSLSSTLTLSKADYEKHKVYACEVTHQGLSSPVTKSFNRGEC
notes: hIgG4Pro/hIgK
B8: h15H11-66 (antibody, human IgG4 S228P, kappa)
heavy: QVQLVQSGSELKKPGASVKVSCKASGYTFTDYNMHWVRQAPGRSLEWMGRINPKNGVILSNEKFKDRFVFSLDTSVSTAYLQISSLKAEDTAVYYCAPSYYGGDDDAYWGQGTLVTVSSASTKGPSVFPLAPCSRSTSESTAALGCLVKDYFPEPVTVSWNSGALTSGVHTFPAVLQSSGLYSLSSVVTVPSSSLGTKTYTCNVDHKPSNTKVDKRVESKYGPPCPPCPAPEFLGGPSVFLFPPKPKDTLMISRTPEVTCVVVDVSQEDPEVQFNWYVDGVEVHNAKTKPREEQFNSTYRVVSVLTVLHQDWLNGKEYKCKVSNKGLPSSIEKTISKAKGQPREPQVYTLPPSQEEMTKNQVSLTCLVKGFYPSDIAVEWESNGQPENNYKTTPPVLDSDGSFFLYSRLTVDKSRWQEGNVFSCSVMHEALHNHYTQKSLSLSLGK
light: B7 light with M4L, D9A
notes: hIgG4Pro/hIgK
B9: h15H11-67 (antibody, human IgG4 S228P, kappa)
heavy: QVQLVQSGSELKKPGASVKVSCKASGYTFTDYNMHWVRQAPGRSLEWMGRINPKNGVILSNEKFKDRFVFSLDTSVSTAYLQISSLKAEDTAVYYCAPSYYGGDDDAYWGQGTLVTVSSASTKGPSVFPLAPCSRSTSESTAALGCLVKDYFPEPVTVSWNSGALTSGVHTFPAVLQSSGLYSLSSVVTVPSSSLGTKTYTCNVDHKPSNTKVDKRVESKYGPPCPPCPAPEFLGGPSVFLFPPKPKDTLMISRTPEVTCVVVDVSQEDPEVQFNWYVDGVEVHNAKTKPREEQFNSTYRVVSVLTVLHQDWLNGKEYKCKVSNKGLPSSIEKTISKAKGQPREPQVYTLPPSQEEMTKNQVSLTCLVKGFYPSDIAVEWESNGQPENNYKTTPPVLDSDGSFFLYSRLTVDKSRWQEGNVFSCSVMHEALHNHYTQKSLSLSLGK
light: B7 light with M4L, D9A, E17Q
notes: hIgG4Pro/hIgK
B10: h15H11-56 (antibody, human IgG4 S228P, kappa, V domains shown)
VH: B2 VH with N59L, N104D, T105D, V107A
VL: B2 VL with L4M, A9D, P15L, Q17E, T22N, A64D, E83Q, N85E, T87V, N89V
notes: hIgG4Pro/hIgK
B11: h15H11-59 (antibody, human IgG4 S228P, kappa, V domains shown)
VH: B2 VH with N59L, N104D, T105D, V107A
VL: DIVMTQSPDSLAVSLGERATINCRASDSVDNYGISFLNWFQQKPGQPPKLLIYAASSQGSGVPDRFSGSGSGTDFTLTINPMQAEDVAVYYCQQSKEFPWTFGGGTKVEIKR
notes: hIgG4Pro/hIgK
B12: h15H11-60 (antibody, human IgG4 S228P, kappa, V domains shown)
VH: B2 VH with N59L, N104D, T105D, V107A
VL: B11 VL with N80S, P81S
notes: hIgG4Pro/hIgK
B13: h15H11-62 (antibody, human IgG4 S228P, kappa, V domains shown)
VH: B2 VH with N59L, N104D, T105D, V107A
VL: B11 VL with N80S, P81S, Q83E
notes: hIgG4Pro/hIgK
B14: h15H11-55 (antibody, human IgG4 S228P, kappa, V domains shown)
VH: B2 VH with N59L, N104D, T105D, V107A
VL: B11 VL with D27E, L37M, N80S, P81S, V89M
notes: hIgG4Pro/hIgK
B15: h15H11-65 (antibody, human IgG4 S228P, kappa, V domains shown)
VH: B2 VH with N59L, N104D, T105D, V107A
VL: B11 VL with D64A, N80S, P81S, V89M
notes: hIgG4Pro/hIgK
B16: h15H11-63 (antibody, human IgG4 S228P, kappa, V domains shown)
VH: B2 VH with N59L, N104D, T105D, V107A
VL: B11 VL with N80S, P81S, V87T
notes: hIgG4Pro/hIgK
B17: h15H11-58 (antibody, human IgG4 S228P, kappa, V domains shown)
VH: B2 VH with N59L, N104D, T105D, V107A
VL: B11 VL with N80S, P81S, V89M
notes: hIgG4Pro/hIgK
B18: h15H11-57 (antibody, human IgG4 S228P, kappa, V domains shown)
VH: B2 VH with N59L, N104D, T105D, V107A
VL: B11 VL with D27E, L37M, N80S, P81S
notes: hIgG4Pro/hIgK
B19: h15H11-61 (antibody, human IgG4 S228P, kappa, V domains shown)
VH: B2 VH with N59L, N104D, T105D, V107A
VL: B11 VL with Q83E, V87T, V89N
notes: hIgG4Pro/hIgK
B20: h15H11-48 (antibody, human IgG4 S228P, kappa, V domains shown)
VH: B2 VH with N59L, N104D, T105D, V107A
VL: B2 VL with E27D, M37L, N85L
notes: hIgG4Pro/hIgK
B21: h15H11-46 (antibody, human IgG4 S228P, kappa, V domains shown)
VH: B2 VH with N59L, N104D, T105D, V107A
VL: B2 VL with E27D, M37L, N85Q
notes: hIgG4Pro/hIgK
B22: h15H11-45 (antibody, human IgG4 S228P, kappa, V domains shown)
VH: B2 VH with N59L, N104D, T105D, V107A
VL: B2 VL with E27D, M37L, N85A
notes: hIgG4Pro/hIgK
B23: h15H11-53 (antibody, human IgG4 S228P, kappa, V domains shown)
VH: B2 VH with N59L, N104D, T105D, V107A
VL: B2 VL with E27D, M37L, N85G
notes: hIgG4Pro/hIgK
B24: h15H11-44 (antibody, human IgG4 S228P, kappa, V domains shown)
VH: B2 VH with N59L, N104D, T105D, V107A
VL: B2 VL with E27D, M37L, N85E
notes: hIgG4Pro/hIgK
B25: h15H11-49 (antibody, human IgG4 S228P, kappa, V domains shown)
VH: B2 VH with N59L, N104D, T105D, V107A
VL: B2 VL with E27D, M37L, N85V
notes: hIgG4Pro/hIgK
B26: h15H11-50 (antibody, human IgG4 S228P, kappa, V domains shown)
VH: B2 VH with N59L, N104D, T105D, V107A
VL: B2 VL with E27D, M37L, N85I
notes: hIgG4Pro/hIgK
B27: h15H11-51 (antibody, human IgG4 S228P, kappa, V domains shown)
VH: B2 VH with N59L, N104D, T105D, V107A
VL: B2 VL with E27D, M37L, N85D
notes: hIgG4Pro/hIgK
B28: h15H11-47 (antibody, human IgG4 S228P, kappa, V domains shown)
VH: B2 VH with N59L, N104D, T105D, V107A
VL: B2 VL with E27D, M37L, N85F
notes: hIgG4Pro/hIgK
B29: h15H11-54 (antibody, human IgG4 S228P, kappa, V domains shown)
VH: B2 VH with N59L, N104D, T105D, V107A
VL: B2 VL with E27D, M37L, D86P
notes: hIgG4Pro/hIgK
B30: h15H11-52 (antibody, human IgG4 S228P, kappa, V domains shown)
VH: B2 VH with N59L, N104D, T105D, V107A
VL: B2 VL with E27D, M37L, N85R
notes: hIgG4Pro/hIgK

Biological target: T1, Cys-hCE3C peptide (CQPKYEYSL), hCE3C …
Assay: ELISA, hybridoma supernatant on anti-mouse IgG plate, biotin-labeled Cys-hCE3C + streptavidin-HRP
Description: Three days after the final immunization, the spleen was removed, splenocytes and mouse myeloma cells (p3x6363-Ag8, Tokyo Oncology Institute) were fused by the PEG-method, and selection was made in a medium containing hypoxanthine, aminopterin and thymidine. Human Nav1.7-binding antibodies were identified by performing ELISA against immunogenic peptides using hybridoma culture supernatants. Specifically, hybridoma culture supernatant was added to an anti-mouse IgG antibody immobilized plate, washed twice with ELISA wash buffer, and biotin-labeled immunogenic peptide (Cys-hCE3C) and Streptavidin-HRP (manufactured by PIERCE) was added and reacted overnight at 4° C. After washing twice with ELISA wash buffer and developing color by adding TMB-Substrate Chromogen (manufactured by Thermo Fisher Scientific), the reaction was stopped with an equal volume of 0.5N sulfuric acid, and the absorbance at 450 nm was measured.

| binding result | Binder |
| --- | --- |
| binds | B1 |

Biological target: T2, epitope peptide Cys-CE3C long
Assay: competitive ELISA (Example 5)
Description: (§1) A diluted solution of the obtained recombinant humanized antibody, a biotin-labeled immunogen peptide, and Streptavidin-HRP (manufactured by PIERCE) were added to an anti-human IgG antibody-immobilized plate, and reacted overnight at 4° C. […] Next, a recombinant human antibody at the dilution rate, a biotin-labeled immunogen peptide, and Streptavidin-HRP (manufactured by PIERCE) were added. At the same time, a dilution series of unlabeled immunogenic peptide was added and reacted overnight at 4° C. After washing twice with ELISA wash buffer, TMB-Substrate Chromogen (manufactured by Thermo Fisher Scientific) was added to develop color, the reaction was stopped with an equal amount of 0.5N sulfuric acid, and the absorbance at 450 nm was measured. The concentration of the unlabeled peptide which attenuated the signal of the biotin-labeled peptide by half was defined as the affinity (IC50).

| Binder | binding result |
| --- | --- |
| B2 | no binding (tested: below the detection limit) |
| B3 | no binding (tested: below the detection limit) |
| B4 | no binding (tested: below the detection limit) |
| B5 | no binding (tested: below the detection limit) |
| B6 | no binding (tested: below the detection limit) |

Biological target: T2, epitope peptide Cys-CE3C long
Assay: competitive ELISA, unlabeled vs biotin-labeled peptide, antibody on anti-human IgG plate
Description: as §1
A mutant having the heavy chain variable region represented by IGHV7-4-1 Q43R, G44S, N58L, N100D, T100aD, R94P (SEQ ID NO: 33) and the light chain variable region represented by IGKV4-1 (SEQ ID NO: 18) produced in Example 3 was produced. New mutants (h15H11-55 to 67) were produced in which various mutations were introduced into the light chain human framework sequence of the produced mutants, and affinity evaluation was performed on the produced mutants by the method described in Example 5.

| IC50 [nM] | Binder |
| --- | --- |
| 0.68 | B7 |
| 0.53 | B8 |
| 0.46 | B9 |
| 0.85 | B10 |
| 0.8 | B11 |
| 0.79 | B12 |
| 0.73 | B13 |
| 0.82 | B14 |
| 0.75 | B15 |
| 0.64 | B16 |
| 0.78 | B17 |
| 0.89 | B18 |
| 0.79 | B19 |

Biological target: T2, epitope peptide Cys-CE3C long
Assay: as above
Remark: another data set of the same source
Description: as §1
Mutants (h15H11-44 to 54) in which various mutations were introduced into the light chain human framework sequence of h15H11-2 (heavy chain variable region: IGHV7-4-1 Q43R, G44S, N58L, N100D, T100aD, R94P (SEQ ID NO: 33)/light chain variable region: IGKV7-3 E27D, M33L, Y36F, V78M (SEQ ID NO: 55)) produced in Example 7 were produced. Affinity evaluation was performed on the produced mutants by the method described in Example 5.

| IC50 [nM] | Binder |
| --- | --- |
| 0.51 | B20 |
| 0.5 | B21 |
| 0.5 | B22 |
| 0.55 | B23 |
| 0.51 | B24 |
| 0.62 | B25 |
| 0.55 | B26 |
| 0.63 | B27 |
| 0.53 | B28 |
| 0.72 | B29 |
| 0.5 | B30 |
